Side chains are listed from the residue outwards. Ends that are not written are not given here. dC16 = not defined here

The values below come from patent US20160009770A1 (LAWRENCE BERKELEY NATIONAL LABORATORY, published 2016).

The data set concerns the molecule itself. The experiment in a line: UV-vis heme titration; reports an intact 4-helix bundle (self-association).

B1: dC16-BB-P2K conjugate 8 (designed binder)
peptide: dC16-GGGEIWKLHEEFLC([maleimide-PEG 2000 Da])KFEELLKLHEERLKKM
modifications: reading uncertain
notes: also called BB-dC16-P2K; H10H24-dC16-PEG2K
In the case of B1, the binding result is “binds”.
